According to patent US8324344B2, “Membrane transduction peptides and methods of delivering material to a target cell” (STC.UNM, priority 2008, dated 2012):
“Also recorded” adds a separate entry of the source.

How the values were obtained:
importin-α = experiment: Co-immunoprecipitation assay of TFPI-2 with importin-α from HT-1080 cell lysates; format: binding, human; details: lysates of TFPI-2-treated (1 μM) HT-1080 cells or HT-1080 cells overexpressing TFPI-2; SK-9 or anti-importin-α antibody (FIG. 5)
Source text: To identify the adapter protein(s) involved in transporting TFPI-2 to the nucleus, we performed co-immunoprecipitation studies using the PROFOUND co-immunoprecipitation kit and cell lysates derived from either vehicle-treated HT-1080 cells, TFPI-2-treated HT-1080 cells or HT-1080 cells overexpressing TFPI-2. Approximately 4.5×10^6 cells from each system were washed twice with PBS, and the lysates prepared in the presence of proteinase inhibitors using the mammalian protein extraction reagent provided in the kit. Complexes of importin-α and TFPI-2 were removed from the lysate by co-immunoprecipitation according to the manufacturer's instructions. In this procedure, antibodies specific for either importin-α or TFPI-2 (SK-9) were covalently linked at room temperature for 16 hours to an amine-reactive gel in coupling buffer (8 mM sodium phosphate/2 mM potassium phosphate/10 mM KCl/140 mM NaCl [pH 7.4]). Cell lysates from the above preparations were added to the antibody-coupled columns and incubated at 4° C. for 18 hours with gentle end-over-end mixing. The columns were then washed several times with coupling buffer containing 0.5 M NaCl to remove non-specifically bound proteins, and finally eluted with the elution buffer provided in the kit. […]

HT-1080 cells [1] = experiment: Internalization of offered recombinant proteins in HT-1080 cells, immunoblotting of cytosolic and nuclear fractions; format: cell-based, human; details: 1 μM
Procedure: HT-1080 cells were grown in six-well plates under standard conditions. At confluence, the cells were treated with fresh medium containing either wild-type TFPI-2, TFPI-2^1-188, R24Q KD1, R24K KD1, or R24K KD1-CT as previously described (Kempaiah and Kisiel, Apoptosis, 2008;13:702-715). Briefly, duplicate wells were treated with purified proteins (1 μM final concentration) and incubated at either 37° C. or 4° C. for different time periods. Two wells were also treated with phosphate-buffered saline (PBS) at each temperature to serve as a control. At selected time points, the media was removed and the cells were rinsed once with PBS. The cells were then washed with 1 M NaCl/PBS for 30 minutes with gentle shaking to dissociate cell surface-bound proteins (Iino et al., Arterioscler. Thromb. Vasc. Biol., 1998;18:40-46). Finally, the cells were rinsed once with PBS, trypsinized and harvested for the preparation of cell lysates and cell fractions.
To prepare total cell lysates, 1-3×10^6 cells were lysed by sonication in 500 μl of lysis buffer containing of 125 mM Tris-HCl (pH 6.8), 2% SDS, 10% glycerol, 50 mM sodium phosphate, 1 mM phenylmethanesulphonylfluoride (PMSF) and protease inhibitor cocktail. The lysate was kept on ice for about 10 minutes, centrifuged for 15 minutes at 10,000×g at 4° C., and the supernatant recovered. To prepare nuclear and cytosolic fractions, approximately 2×10^6 cells were harvested and washed twice with cold PBS by centrifugation at 600×g in a Beckman J-6M/E centrifuge for seven minutes at 4° C. Five volumes of ice cold cytosolic buffer (10 mM Hepes pH 7.4, 0.33 M sucrose, 1 mM MgCl2, 0.1% Triton X-100 and protease inhibitor cocktail) was added to the cells and incubated on ice for 15 minutes. The cytosolic fraction was collected by centrifugation at 900×g for five minutes at 4° C. The resulting undissolved pellet was washed twice with cytosolic buffer followed by centrifugation at 900×g for five minutes at 4° C. Finally, the resulting pellet was resuspended in five volumes of ice cold buffer containing 0.45 M NaCl in 10 mM Hepes (pH 7.4) and protease inhibitor cocktail. The suspension was incubated on ice for an additional 15 minutes to dissolve the nucleus, and subsequently centrifuged at 18,000×g for five minutes at 4° C. The resulting supernatant was collected as the nuclear extract. All samples were boiled for three minutes in the presence of 5% SDS and stored at −20° C. until use.
The cell lysate, cytosol and nuclear fractions were subjected to SDS-PAGE using 4-20% polyacrylamide gradient gels. […] The membranes were then probed with specific antibodies dissolved in fresh blocking buffer. Immunoreactive proteins were identified using HRP-conjugated secondary antibodies and a chemiluminescent reagent system essentially as described (Kempaiah et al., Mol. Cancer, 2007;6:20). The integrity of the cytosolic and nuclear fractions was verified using anti-α-tubulin and anti-histone-H1 antibodies, respectively (Guo et al., Am. J Physiol. Cell Physiol., 2007;292:2095-2102).
The relative intensity of the Western blot bands were quantified using QUANTISCAN software (Biosoft, Cambridge, U.K.). The intensities are reported in arbitrary units (A.U.) obtained by subtracting the background value from the corresponding band's mean value.

HT-1080 cells [2] = experiment: Localization of protein in stably-transfected overexpressing HT-1080 cells, immunoblotting and immunocytochemistry; format: cell-based, human; details: HT-1080 cells stably transfected with cDNA (FIG. 3, FIG. 4C, 4D)
Procedure: HT-1080 and HEK 293 cell lines were stably transfected to overexpress either wild-type human TFPI-2 or a mutant TFPI-2 construct lacking the carboxy-terminal tail (TFPI-2^1-188), and were maintained as described (Chand et al., Blood, 2004;103:1069-1077, Du et al., Arch. Biochem. Biophys:, 2003;417:96-104). An anti-human TFPI-2 murine monoclonal antibody designated as SK-9 was prepared as described (Du et al., Arch. Biochem. Biophys., 2003;417:96-104) and coupled to Affi-Gel 10 according to the manufacturer's recommendation. Recombinant human TFPI-2 was purified from HEK 293 serum-free conditioned media by a two-step chromatography procedure involving heparin-agarose (Sprecher et al., Proc. Natl. Acad. Sci. USA., 1994;91:3353-3357) and SK-9-AffiGel 10 affinity chromatography. In the latter procedure, heparin-agarose purified TFPI-2 was dialyzed against 50 mM Tris-HCl (pH 7.5) and applied to the SK-9-AffiGel 10 column equilibrated at room temperature with this buffer. After a wash step with 50 mM Tris-HCl (pH 7.5)/0.5 M NaCl, TFPI-2 was eluted with 0.1 M glycine (pH 2.5)/0.5 M NaCl into one-tenth volume of 1 M Tris-HCl (pH 8.8) to immediately neutralize the pH 2.5 glycine. […]

human tumor cell lines = details: several tumor cell lines, exogenously offered; Kempaiah and Kisiel 2008; cited from earlier work

B1: TFPI-2: Human tissue factor pathway inhibitor-2, a 32 kDa Kunitz-type serine proteinase inhibitor (SEQ ID NO:1), recombinant from HEK 293 (protein, listed as Homo sapiens)
chain: DAAQEPTGNNAEICLLPLDYGPCRALLLRYYYDRYTQSCRQFLYGGCEGNANNFYTWEACDDACWRIEKVPKVCRLQVSVDDQCEGSTEKYFFNLSSMTCEKFFSGGCHRNRIENRFPDEATCMGFCAPKKIPSFCYSPKDEGLCSANVTRYYFNPRYRTCDAFTYTGCGGNDNNFVSREDCKRACAKALKKKKKMPKLRFASRIRKIRKKQF
modifications: tissue factor pathway inhibitor-2
**Q.** With B1 as the molecule, how does the “Complex formation with importin-α (co-immunoprecipitation)” value (importin-α) read?
**A.** Its value is “complexes of TFPI-2 and importin-α were immunoprecipitated by each antibody; also recorded: formed complexes with importin-α”.

**Q.** And the “Amount localized in the nucleus in 60 minutes at 4° C. (temperature dependence)” value (HT-1080 cells [1]; 4° C. versus 37° C. (FIG. 1C))?
**A.** The value was “roughly equivalent to that observed in five minutes at 37 °C”.

**Q.** And the “Time of maximal cytosolic and nuclear localization” value (HT-1080 cells [1]; 24-72 hours incubation)?
**A.** The value was 48 h.

**Q.** And the “Intracellular distribution of internalized protein” value (HT-1080 cells [1]; 24-72 hours incubation, immunoblot (FIG. 1))?
**A.** The value was “internalized and distributed in both the cytosolic and the nuclear fractions”.

**Q.** And the “Rate of internalization and translocation to the nucleus” value (HT-1080 cells [1]; 37° C., within the first 15 minutes of offering (FIG. 1A))?
**A.** The value was “rapidly internalized by these cells and translocated to the nucleus within minutes of offering; also recorded: rapidly internalized by HT-1080 cells and efficiently translocated to the nucleus”.

**Q.** What about the “Localization of overexpressed protein” value (HT-1080 cells [2]) of the same molecule?
**A.** Its value is “cytosolic and nuclear localization of TFPI-2”.

**Q.** What about the “Induction of caspase-mediated apoptosis” value (human tumor cell lines) of the same molecule?
**A.** Its value is “induce caspase-mediated apoptosis”.
